Assay results: publication PMC6416349

Legend:
Assay in all cases: SPR; Biacore 3000, 25 °C; fungal protein immobilised on a CM5 chip by amine coupling (300 RU Eno1 and Mp65, 360 RU Als3); RgpA 10-100 nM injected at 20 µl/min; 10 mM HEPES, 150 mM NaCl, 0.005% surfactant, pH 7.4; global fit, 1:1 Langmuir model with baseline drift
[1] = target: C. albicans cell wall mannoprotein 65 (Mp65) (C. albicans) (UniProt Q59XX2)
[2] = target: C. albicans agglutinin-like sequence protein 3 (Als3), isolated from the hyphal cell wall (C. albicans) (UniProt Q59L12)
Sequence of UniProt Q59L12 (Q59L12 18-1134): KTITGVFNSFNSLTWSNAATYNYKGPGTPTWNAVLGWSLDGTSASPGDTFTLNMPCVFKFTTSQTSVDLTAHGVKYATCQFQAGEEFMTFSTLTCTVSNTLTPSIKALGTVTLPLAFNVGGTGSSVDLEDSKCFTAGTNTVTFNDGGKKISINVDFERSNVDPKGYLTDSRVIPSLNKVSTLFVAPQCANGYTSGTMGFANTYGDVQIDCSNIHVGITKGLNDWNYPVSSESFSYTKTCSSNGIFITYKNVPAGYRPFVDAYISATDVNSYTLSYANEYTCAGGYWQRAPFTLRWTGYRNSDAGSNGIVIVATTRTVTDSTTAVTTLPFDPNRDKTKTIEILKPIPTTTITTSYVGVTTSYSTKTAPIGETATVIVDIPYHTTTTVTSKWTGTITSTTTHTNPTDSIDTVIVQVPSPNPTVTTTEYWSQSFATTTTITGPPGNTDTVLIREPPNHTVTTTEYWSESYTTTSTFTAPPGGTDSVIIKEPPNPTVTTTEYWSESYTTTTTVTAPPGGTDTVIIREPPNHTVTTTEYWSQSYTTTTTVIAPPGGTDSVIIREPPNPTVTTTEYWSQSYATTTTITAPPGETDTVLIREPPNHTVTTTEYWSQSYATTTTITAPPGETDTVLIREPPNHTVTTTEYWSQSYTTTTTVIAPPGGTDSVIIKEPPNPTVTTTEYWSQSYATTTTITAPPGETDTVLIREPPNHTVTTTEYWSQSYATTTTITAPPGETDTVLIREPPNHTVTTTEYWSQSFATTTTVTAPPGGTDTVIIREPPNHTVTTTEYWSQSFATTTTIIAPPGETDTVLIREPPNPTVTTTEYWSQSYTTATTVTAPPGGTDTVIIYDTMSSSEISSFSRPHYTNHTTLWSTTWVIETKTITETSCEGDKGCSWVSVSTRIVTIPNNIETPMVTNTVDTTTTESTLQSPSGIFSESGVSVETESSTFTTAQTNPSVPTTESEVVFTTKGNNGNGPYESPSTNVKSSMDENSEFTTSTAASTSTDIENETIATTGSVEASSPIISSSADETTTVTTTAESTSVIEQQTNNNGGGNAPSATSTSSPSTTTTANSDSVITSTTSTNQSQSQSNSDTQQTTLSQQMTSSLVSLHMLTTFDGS

[3] = target: C. albicans enolase 1 (Eno1) (C. albicans) (UniProt P30575)
Sequence of UniProt P30575 (P30575 whole entry): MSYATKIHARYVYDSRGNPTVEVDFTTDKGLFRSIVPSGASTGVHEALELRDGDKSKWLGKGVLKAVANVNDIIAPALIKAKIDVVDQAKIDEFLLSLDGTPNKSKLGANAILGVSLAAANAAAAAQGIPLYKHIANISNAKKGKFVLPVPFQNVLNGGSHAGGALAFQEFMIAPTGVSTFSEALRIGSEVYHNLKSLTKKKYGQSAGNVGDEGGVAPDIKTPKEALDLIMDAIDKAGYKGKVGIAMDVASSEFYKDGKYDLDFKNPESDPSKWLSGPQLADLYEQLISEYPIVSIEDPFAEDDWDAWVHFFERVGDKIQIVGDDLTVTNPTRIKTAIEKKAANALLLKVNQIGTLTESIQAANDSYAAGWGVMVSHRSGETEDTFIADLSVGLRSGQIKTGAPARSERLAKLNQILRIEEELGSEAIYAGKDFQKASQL

Sequence of UniProt Q59XX2 (Q59XX2 33-378): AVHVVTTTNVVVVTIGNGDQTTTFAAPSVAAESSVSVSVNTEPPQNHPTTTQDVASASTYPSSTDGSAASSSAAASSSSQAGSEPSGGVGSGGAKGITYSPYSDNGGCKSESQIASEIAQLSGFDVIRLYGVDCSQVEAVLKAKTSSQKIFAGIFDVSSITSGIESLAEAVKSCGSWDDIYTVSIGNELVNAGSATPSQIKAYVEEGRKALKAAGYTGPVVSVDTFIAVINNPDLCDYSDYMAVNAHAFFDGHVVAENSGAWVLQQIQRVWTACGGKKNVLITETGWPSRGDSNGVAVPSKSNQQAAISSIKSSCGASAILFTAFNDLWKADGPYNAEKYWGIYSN

P. gingivalis gingipain RgpA (HRgpA) (from UniProt P28784 228-991) (enzyme)
Kd [1]: 9.44 nM
Kd [2]: 9.96 nM
Kd [3]: 2.97 nM
